According to patent US9322000B2, “Methanol dehydrogenase enzymes from Bacillus” (Sinvent AS, priority 2012, dated 2016):
Entries after “also recorded” stand apart in the source; their conditions may differ.

Key:
Type in all cases: biochemical
[1] = In vitro Mdh activity in crude cell extracts of recombinant E. coli; conditions: for In vitro activity: expressed in E. coli, crude cell extract; for ranking of Mdh activity on expression in E. coli: in vitro and in vivo
Description: The genes coding for Mdh and the Mdh activator protein Act were amplified from pET21a-plasmids harboring genes from B. methanolicus strains MGA3 (mdh-MGA3, mdh2-MGA3, mdh3-MGA3 and act-MGA3) and PB1 (mdh-PB1, mdh1-PB1 and mdh2-PB1). The genes were then cloned either into the pSEVA424 plasmid (mdh genes) or in the pSEVA131 plasmid (act gene). For cloning of mdh-MGA3, mdh-PB1, mdh1-PB1 and act-MGA3, EcoRI and HindIII restrictions sites were used, while mdh2-MGA3, mdh2-PB1 and mdh3-MGA3 were cloned by using EcoRI and PstI restriction sites. The resulting expression vectors were transformed into electrocompetent wt E. coli K-12 (BW25113) and into E. coli K-12 (BW25113) with a deleted frmA gene.
Expression Experiments For expression experiments, the cells were cultivated in either Luria-Bertani (LB) medium for in vitro assays or in M9 medium for in vivo assays both containing 20 μg/ml streptomycin for pSEVA424. When Act was co-expressed the medium was supplemented with 100 μg/ml ampicillin. Expression was induced when cells reached OD 0.5 (for in vitro tests) or OD 1 (for in vivo tests) by adding 0.1 mM IPTG (final concentration) for 6 hours. Cells were then harvested by centrifugation. For in vitro assays, crude cell extract was prepared by lysing the cells in a French press following ultracentrifugation. Alternatively, cells were resuspended in M9-medium without glucose for in vivo activity measurements. Enzyme Assays
In vitro measurements of Mdh activity: For determination of Mdh activity in crude cell extracts, the Mdh dependent formation of NADH was monitored at 340 nm. The assays were performed either at 37° C. or 45° C. in prewarmed buffer solutions. The Mdh assay contained 10-20 μg enzyme, 50 mM K2HPO4-buffer, pH7.4, 2.5 mM MgCl and 0.5 mM of NAD^+ (final concentrations). After 5 min of preincubation, the reaction was started with 1 M of methanol (final concentration).

[2] = Heat stability: pre-incubation of purified MDHs at 45° C. or 60° C. prior to the enzyme assay; conditions: preincubation at 60° C.; compared to the remaining MDHs
Procedure: FIG. 5. (A) Temperature stability of MGA3 Mdh, Mdh2 and Mdh3 was tested in vitro. Enzymes were incubated at 45° C. or at 60° C. prior to the enzyme assay. (B) Temperature stability of PB1 Mdh, Mdh1 and Mdh2 was tested in vitro. Enzymes were incubated at 45° C. or at 60° C. prior to the enzyme assay.
The heat stability of the six MDHs was tested by pre-incubation of the proteins at 45° C. and 60° C. and samples were taken at different time points for enzyme assays. As expected, all enzymes retained essentially all catalytic activity upon preincubations at 45° C. (FIG. 5). […] A selection of the experiments was repeated in the presence of equal amounts of purified Act, and this had no effect on temperature stability for any of the MDHs (data not shown).

[3] = Alcohol dehydrogenase assay of purified MDH proteins with ethanol as substrate
Procedure: Alcohol dehydrogenase activities were measured spectrophotometrically essentially as described previously (Hektor, Kloosterman et al. (2002) Chem 277(49): 46966-46973) and the reaction mixture contained: 100 mM Glycine-KOH pH 9.5 (unless otherwise stated), 5 mM MgSO4, 0.5 mM NAD^+ and 500 mM alcohol (methanol, ethanol, propanol, 1,3-propanediol, or butanol). NAD^+ was substituted with equal concentrations of NADP^+, FMN^+, and FAD^+, when indicated. The reaction mixture for measurements of formaldehyde reductase activity contained: 50 mM Potassium-phosphate buffer pH=6.7, 0.15 mM NADH, 1 mM DTT and 11.6 mM (0.1-116 mM) formaldehyde. The assay components were mixed in the cuvette and pre-warmed to 45° C., unless otherwise stated. The reactions were started by addition of 5-40 μg of the purified MDH proteins, and the production of NADH was monitored at 340 nm for 4 minutes. One unit of MDH activity was defined as the amount of enzyme needed to produce 1 μmol NADH per minute under the conditions described above. Purified Act (0.1-40 μg) or NudF (20 μg) proteins were added to the reaction mixtures as indicated in the text.
In order to establish reliable assay conditions for comparative biochemical characterizations, the six MDH proteins were analysed for pH and temperature optima. […]

| Molecule | In vitro activity ([1]; 37° C., +Act) [mU/mg] | In vitro activity ([1]; 37° C., −Act) [mU/mg] | In vitro activity ([1]; 45° C., +Act) [mU/mg] | In vitro activity ([1]; 45° C., −Act) [mU/mg] | temperature stability in vitro (in words) [2] | stimulation of Mdh activity with NudF ([3]; B. subtilis NudF added) | increase of catalytic activity in the presence of Act ([3]; MDH and Act 1:1) | ranking of Mdh activity on expression in E. coli [1] | ranking of Mdh activity on expression in E. coli ([1]; listed as MGA3-Mdh2) |
| --- | --- | --- | --- | --- | --- | --- | --- | --- | --- |
| Mdh3-MGA3: NAD-dependent methanol dehydrogenase encoded by chromosomal gene mdh3 of B. methanolicus MGA3, SEQ ID NO. 4 (protein, Bacillus methanolicus MGA3) MKNTQSAFYMPSVNLFGAGSVNEVGTRLAGLGVKKALLVTDAGLHSLGLSEKIAGIIREAGVEVAIFPKAEPNPTDKNVAEGLEAYNAENCDSIVTLGGGSSHDAGKAIALVAANGGTIHDYEGVDVSKKPMVPLIAINTTAGTGSELTKFTIITDTERKVKMAIVDKHVTPTLSINDPELMVGMPPSLTAATGLDALTHAIEAYVSTGATPITDALAIQAIKIISKYLPRAVANGKDIEAREQMAFAQSLAGMAFNNAGLGYVHAIAHQLGGFYNFPHGVCNAILLPHVCRFNLISKVERYAEIAAFLGENVDGLSTYEAAEKAIKAIERMARDLNIPKGFKELGAKEEDIETLAKNAMNDACALTNPRKPKLEEVIQIIKNAM | 327 | 21 | 867 | 113 | Higher Temperature Stabilities; also recorded: improved thermostability |  |  |  |  |
| Mdh-MGA3: previously reported plasmid pBM19-encoded NAD-dependent methanol dehydrogenase of B. methanolicus MGA3, SEQ ID NO. 8 (protein, Bacillus methanolicus MGA3) MTTNFFIPPASVIGRGAVKEVGTRLKQIGAKKALIVTDAFLHSTGLSEEVAKNIREAGVDVAIFPKAQPDPADTQVHEGVDVFKQENCDSLVSIGGGSSHDTAKAIGLVAANGGRINDYQGVNSVEKPVVPVVAITTTAGTGSETTSLAVITDSARKVKMPVIDEKITPTVAIVDPELMVKKPAGLTIATGMDALSHAIEAYVAKGATPVTDAFAIQAMKLINEYLPKAVANGEDIEAREKMAYAQYMAGVAFNNGGLGLVHSISHQVGGVYKLQHGICNSVNMPHVCAFNLIAKTERFAHIAELLGENVAGLSTAAAAERAIVALERINKSFGIPSGYAEMGVKEEDIELLAKNAYEDVCTQSNPRVPTVQDIAQIIKNAM | 464 | 48 | 1260 | 251 | only moderate negative effects | about 8 fold | about 8 fold |  |  |
| Mdh2-MGA3: NAD-dependent methanol dehydrogenase encoded by chromosomal gene mdh2 of B. methanolicus MGA3, SEQ ID NO. 2 (protein, Bacillus methanolicus MGA3) MTNTQSAFFMPSVNLFGAGSVNEVGTRLADLGVKKALLVTDAGLHGLGLSEKISSIIRAAGVEVSIFPKAEPNPTDKNVAEGLEAYNAENCDSIVTLGGGSSHDAGKAIALVAANGGKIHDYEGVDVSKEPMVPLIAINTTAGTGSELTKFTIITDTERKVKMAIVDKHVTPTLSINDPELMVGMPPSLTAATGLDALTHAIEAYVSTGATPITDALAIQAIKIISKYLPRAVANGKDIEAREQMAFAQSLAGMAFNNAGLGYVHAIAHQLGGFYNFPHGVCNAVLLPYVCRFNLISKVERYAEIAAFLGENVDGLSTYDAAEKAIKAIERMAKDLNIPKGFKELGAKEEDIETLAKNAMKDACALTNPRKPKLEEVIQIIKNAM | 672 | 59 | 1910 | 310 |  |  |  | gave the best results | overall highest activities both in vitro and in vivo |
